Data reported in US20240335558A1, “ISOLATED POLYPEPTIDE AND USE THEREOF” (GLYCO-THERAPY BIOTECHNOLOGY CO., LTD., priority 2021, published 2024).

B1: HpFT-0HR: HpFT variant: catalytically active domain and C-terminus fused His tag, no heptapeptide repeat (protein)
chain: MFQPLLDAFIESASIEKMVSKSPPPPLKIAVANWWGDEEIKEFKKSVLYFILSQRYAITLHQNPNESSDLVFSNPLGAARKILSYQNTKRVFYTGENESPNFNLFDYAIGFDELDFNDRYLRMPLYYAHLHYEAELVNDTTAPYKLKDNSLYALKKPSHHFKENHPNLCAVVNDESDLLKRGFASFVASNANAPMRNAFYDALNSIEPVTGGGSVRNTLGYKVGNKSEFLSQYKFNLCFENSQGYGYVTEKILDAYFSHTIPIYWGSPSVAKDFNPKSFVNVHDFNNFDEAIDYIKYLHTHPNAYLDMLYENPLNTLDGKAYFYQDLSFKKILDFFKTILENDTIYHNNPFIFYRDLHEPLISILEHHHHHH
modifications: Catalytically active domain of Helicobacter pylori Alpha-(1,3)-fucosyltransferase (GenBank No.AAD07710.1) with a C-terminal His tag
B2: HpFT-6HR: HpFT variant: catalytically active domain, six heptapeptide repeat sequences and C-terminus fused His tag (protein)
chain: MFQPLLDAFIESASIEKMVSKSPPPPLKIAVANWWGDEEIKEFKKSVLYFILSQRYAITLHQNPNESSDLVFSNPLGAARKILSYQNTKRVFYTGENESPNFNLFDYAIGFDELDFNDRYLRMPLYYAHLHYEAELVNDTTAPYKLKDNSLYALKKPSHHFKENHPNLCAVVNDESDLLKRGFASFVASNANAPMRNAFYDALNSIEPVTGGGSVRNTLGYKVGNKSEFLSQYKFNLCFENSQGYGYVTEKILDAYFSHTIPIYWGSPSVAKDFNPKSFVNVHDFNNFDEAIDYIKYLHTHPNAYLDMLYENPLNTLDGKAYFYQDLSFKKILDFFKTILENDTIYHNNPFIFYRDLHEPLISIDDLRVNYDDLRVNYDDLRVNYDDLRVNYDDLRVNYDDLRVNYLEHHHHHH
modifications: Catalytically active domain of Helicobacter pylori Alpha-(1,3)-fucosyltransferase (GenBank No.AAD07710.1) with 6 heptapeptide repeats and a C-terminal His tag

Assays:
Type in all cases: biochemical
[1] = tested on: Trastuzumab-(GalNAzβ1,4)GlcNAc; assay: Transfer of GDP-FAmP4Biotin to Trastuzumab-(GalNAzβ1,4)GlcNAc by different HpFTs; conditions: donor GDP-FAmP4Biotin 1 mM, enzyme 0.5 mg/mL, 30° C., 3 h; FIG. 4
[2] = tested on: Trastuzumab-(Fucα1,6)(GalNAzβ1,4)GlcNAc; assay: Transfer of GDP-FAmP4Biotin to Trastuzumab-(Fucα1,6)(GalNAzβ1,4)GlcNAc by different HpFTs; conditions: donor GDP-FAmP4Biotin 1 mM, enzyme 0.5 mg/mL, 30° C., 3 h; FIG. 3
[3] = tested on: Trastuzumab-(Fucα1,6)(Galβ1,4)GlcNAc; assay: Transfer of GDP-FAmP4Biotin to Trastuzumab-(Fucα1,6)(Galβ1,4)GlcNAc by different HpFTs; conditions: donor GDP-FAmP4Biotin 1 mM, enzyme 0.5 mg/mL, 30° C., 1 h; FIG. 2
Experimental: To 40 mM Tris-HCl (pH 7.5) buffer were added Trastuzumab-(Fucα1,6)(Galβ1,4)GlcNAc (2 mg/mL final), GDP-FAmP4Biotin (1 mM final), MgCl2 (20 mM final), and different HpFT enzymes (HpFT-4HR, HpFT-4HR(M4), HpFT-4HR(M7), HpFT-6HR, HpFT-3HR, HpFT-2HR, HpFT-1HR or HpFT-0HR) (0.5 mg/mL final) in sequence, and the resulting mixed solution was allowed to react at 30° C. for 1 h. Three parallels were set up for each group. After the reaction time point was reached, to the reaction solution was added 10 mM LacNA, and the reaction was terminated by a desalting column (Zeba™ Spin Desalting Columns/2 ml/40K, Thermo Fisher Scientific), and finally mass spectrometry was carried out and % of conversion was calculated. % of conversion=(MAR0 peak intensity*0+MAR1peak intensity*1+MAR2 peak intensity*2)/2* (MAR0 peak intensity+MAR1 peak intensity+MAR2 peak intensity)*100%.

Molecule | catalytic activity as compared with HpFT-4HR (% of conversion) [1] | catalytic activity as compared with HpFT-4HR (% of conversion) [2] | catalytic activity as compared with HpFT-4HR (% of conversion) [3]
B1 | significantly decreased activity | significantly decreased activity | significantly decreased activity
B2 | little activity change | little activity change | no obvious activity change
